Substitutions are numbered along the chain they refer to. Numbers in names are those of the source.
T1: human IL-18BP (Homo sapiens, UniProt O95998)
T1 construct: His
T1 sequence (O95998 31-194): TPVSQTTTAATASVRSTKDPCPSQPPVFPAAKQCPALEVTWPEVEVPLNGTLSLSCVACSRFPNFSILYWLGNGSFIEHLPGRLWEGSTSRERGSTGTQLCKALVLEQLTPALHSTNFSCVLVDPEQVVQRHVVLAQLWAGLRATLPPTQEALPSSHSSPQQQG

B1: SEQ ID NO: 68: IL-18 polypeptide: V11I, C38A, M51G, K53A, C76A, C127A (protein)
chain: YFGKLESKLSIIRNLNDQVLFIDQGNRPLFEDMTDSDARDNAPRTIFIISGYADSQPRGMAVTISVKCEKISTLSAENKIISFKEMNPPDNIKDTKSDIIFFQRSVPGHDNKMQFESSSYEGYFLAAEKERDLFKLILKKEDELGDRSIMFTVQNED
B2: C162: IL-18 polypeptide: K8E, V11I, C38A, C76A, Q103R, C127A (protein)
chain: B1 chain with K8E, G51M, A53K, Q103R
B3: C154: IL-18 polypeptide: V11I, E31A, D37A, C38A, K53A, C76A, C127A (protein)
chain: B1 chain with E31A, D37A, G51M
B4: C156: IL-18 polypeptide: V11I, C38A, N41A, K53A, C76A, C127A (protein)
chain: B1 chain with N41A, G51M
B5: C160: IL-18 polypeptide: V11I, C38A, K53A, C76A, D110A, C127A (protein)
chain: B1 chain with G51M, D110A
B6: C150: IL-18 polypeptide: V11I, T34A, C38A, K53A, C76A, C127A (protein)
chain: B1 chain with T34A, G51M
B7: C158: IL-18 polypeptide: V11I, C38A, K53A, C76A, G108A, C127A (protein)
chain: B1 chain with G51M, G108A
B8: C149: IL-18 polypeptide: V11I, E31A, C38A, K53A, C76A, C127A (protein)
chain: B1 chain with E31A, G51M
B9: C161: IL-18 polypeptide: K8R, V11I, C38A, C76A, Q103E, C127A (protein)
chain: B1 chain with K8R, G51M, A53K, Q103E
B10: C163: IL-18 polypeptide: V11I, C38A, C76A, Q103K, C127A (protein)
chain: B1 chain with G51M, A53K, Q103K
B11: C148: IL-18 polypeptide: F2A, V11I, C38A, K53A, C76A, C127A (protein)
chain: B1 chain with F2A, G51M
B12: C153: IL-18 polypeptide: V11I, D37A, C38A, K53A, C76A, C127A (protein)
chain: B1 chain with D37A, G51M
B13: C164: IL-18 polypeptide: V11I, C38A, S55H, C76A, C127A (protein)
chain: B1 chain with G51M, A53K, S55H
B14: C157: IL-18 polypeptide: V11I, C38A, K53A, C76A, C127A, D132A (protein)
chain: B1 chain with G51M, D132A
B15: C152: IL-18 polypeptide: V11I, S36A, C38A, K53A, C76A, C127A (protein)
chain: B1 chain with S36A, G51M
B16: C147: IL-18 polypeptide: V11I, C38A, K53A, D54A, C76A, C127A (protein)
chain: B1 chain with G51M, D54A
B17: C151: IL-18 polypeptide: V11I, D35A, C38A, K53A, C76A, C127A (protein)
chain: B1 chain with D35A, G51M
B18: C155: IL-18 polypeptide: V11I, C38A, D40A, K53A, C76A, C127A (protein)
chain: B1 chain with D40A, G51M
B19: C159: IL-18 polypeptide: V11I, C38A, K53A, C76A, H109A, C127A (protein)
chain: B1 chain with G51M, H109A

Assays:
[1] = system: NK-92 cells; assay: IFNγ induction cellular assay in NK-92 cells (Example 4, used in Example 22C); format: cell-based, human; settings: IFNg stimulation in NK92 cells
Protocol: The ability of immunocytokines and IL-18 polypeptides provided herein are assessed for ability to induce IFN[…] in a cellular assay according to the protocol below.
The NK cell line NK-92 derived from a patient with lymphoma (ATCC® CRL-2407™) is cultured in aMEM medium supplemented with 20% FCS, Glutamax, 25 µM B-mercaptoethanol, and 100 IU/mL of recombinant human IL-2.
On the day of experiment, cells are harvested and washed with aMEM medium without IL-2 and containing 1 ng/mL of recombinant human IL-12. After counting, cells are seeded at 100,000 cells/well in a 384 well titer plate and incubated at 37° C./5% CO2. Sixteen 4-fold serial dilutions of IL-18 analytes are prepared in aMEM medium, and 1 ng/mL of IL-12 were added to the NK-92 cells. Final IL-18 analyte concentrations range from 56 nM to 5×10^−5 pM.
After incubating the cells for 16-20 hr at 37° C./5% CO2, 5 μL of supernatant is carefully transferred to a 384 microwell OptiPlate. IFNγ levels are measured using a human IFNγ AlphaLISA Assay Kit. Briefly, 10 μL of 2.5× AlphaLISA Anti-IFNγ acceptor beads and biotinylated antibody anti-IFNγ mix are added to the 5 μL of NK-92 supernatants. The mixtures are incubated for 1 hr at room temperature with shaking. Under subdued light, 2.5 μL of 2× streptavidin (SA) donor beads are pipetted into each well, and the wells are incubated for 30 min at room temperature with shaking. AlphaLISA signals are then measured on an EnSpire™ plate reader using 680 nm and 615 nm as excitation and emission wavelengths, respectively. Half maximal effective concentrations (EC50) are calculated based on a variable slope and four parameter analysis using GraphPad PRISM software.
(§1) The experiments described in Example 4 for determination of IFNg stimulation in NK92 cells (and inhibition by IL-18 BP) were performed substantially as described on IL-18 polypeptides in order to assess their activities and their suitability for incorporation into immunocytokine compositions. It is expected that the IL-18 polypeptides provided below would behave analagously to C086 (SEQ ID NO: 30) when incorporated into an immunocytokine composition as those otherwise provided herein.

[2] = biological target: T1, human IL-18BP; assay: IL-18BP binding alphaLISA assay (Example 4, used in Example 22B); settings: IL-18BP AlphaLISA
Protocol: A human IL-18BP AlphaLISA Assay Kit is used to determine the binding affinity of each immunocytokine and IL-18 variant for IL-18BP, which detected the presence of free form IL-18BP.
Sixteen three-fold serial dilutions of IL-18 analytes are prepared in aMEM medium supplemented with 20% FCS, Glutamax, and 25 µM β-mercaptoethanol in the presence of 5 ng/mL of His-tagged human IL-18BP. Final IL-18 analytes concentration range from 2778 nM to […].
After 1 hr incubation at room temperature, free IL-18BP levels are measured using a […]. In a 384 well OPTIplate, 5 μL of 5× Anti-IL-18BP acceptor beads are added to 7.5 μL of an IL-18/IL-18BP mix. After 30 min incubation at room temperature with shaking, 5 μL of biotinylated Anti-IL-18BP antibodies are added to each well. The plate is incubated further for 1 hr at room temperature. Under subdued light, 12.5 μL of 2× streptavidin (SA) donor beads are pipetted into each well, and the wells are incubated with shaking for an additional 30 min at room temperature. The AlphaLisa signal is then measured on an Enspire plate reader with 680 and 615 nm as excitation and emission wavelengths, respectively. The dissociation constant (KD) is calculated based on a variable slope, four parameter analysis using GraphPad PRISM software.
An IL-18 binding protein AiphaLISA experiment substantially as described in Example 4 was performed on IL-18 polypeptide which can be incorporated into immunocytokine compositions as provided herein to assess ability to bind to IL-181BP. It is expected that the IL-18 polypeptides provided below would behave analogously to C086 (SEQ ID NO: 30) when incorporated into an immunocytokine composition as those otherwise provided herein.

[3] = system: NK-92 cells; assay: IL-18 binding protein inhibition cellular assay in NK-92 cells (Example 4, used in Example 22C); format: cell-based, human; settings: inhibition by IL-18BP of IFNg stimulation in NK92 cells
Protocol: The NK cell line NK-92 derived from a patient with lymphoma (ATCC® CRL-2407™) is cultured in aMEM medium supplemented with 20% FCS-Glutamax, 25 µM B-mercaptoethanol, and 100 IU/mL of recombinant human IL-2.
On the day of experiment, cells are harvested and washed with aMEM medium without IL-2 and containing 1 ng/mL of recombinant human IL-12. After counting, the cells are seeded at 100,000 cells/well in a 384 well titer plate and incubated at 37° C./5% CO2. Sixteen 2-fold serial dilutions of Fc-fused human IL-18 binding protein isoform a (IL-18BPa) are prepared in aMEM medium. 1 ng/mL of IL-12 containing 2 nM of each IL-18 polypeptide variant is added to the NK-92 cells. The final IL-18 analyte concentration is 1 nM, and the final IL-18BPa concentration ranged from 566 nM to […].
After incubating the cells for 16-20 hr at 37° C./5% CO2, 5 μL of the supernatant is carefully transferred to a 384 microwell OptiPlate. IFNγ levels are measured using a human IFNγ AlphaLISA Assay Kit. Briefly, 10 μL of 2.5× AlphaLISA anti-IFNγ acceptor beads and biotinylated antibody anti-IFNγ mix are added to 5 μL of NK-92 supernatants. The mixtures are incubated for 1 hr at room temperature with shaking. Under subdued light, 2.5 μL of 2×SA donor beads are pipetted in each well and incubated for 30 min at room temperature with shaking. AlphaLISA signals are then measured on an EnSpire™ plate reader using 680 nm and 615 nm as excitation and emission wavelengths, respectively. Half maximal inhibitory concentrations (IC50) are calculated based on a variable slope and four parameter analysis using GraphPad PRISM software.
as §1

Row | Molecule | EC50 [1] | Kd [2] | IC50 [3]
1 | B1 | 0.037 nM | 373 nM | 733 nM
2 | B2 | 0.061 nM | 0.85 nM | 7.29 nM
3 | B3 | 0.062 nM | 2.12 nM | 3.71 nM
4 | B4 | 0.558 nM | 18.5 nM | 0.681 nM
5 | B5 | 0.028 nM | 0.71 nM | 3.18 nM
6 | B6 | 0.015 nM | 1.24 nM | 21.3 nM
7 | B7 | 0.073 nM | 1.24 nM | 3.98 nM
8 | B8 | 0.187 nM | 0.64 nM | 1.17 nM
9 | B9 | 0.057 nM | 0.06 nM | 1.07 nM
10 | B10 | 0.093 nM | 0.05 nM | 0.823 nM
11 | B11 | 0.256 nM | 57.2 nM | 5.05 nM
12 | B12 | 0.175 nM | 4.55 nM | 2.22 nM
13 | B13 | 0.414 nM | 0.08 nM | 0.456 nM
14 | B14 | 0.056 nM | 13.7 nM | 6.08 nM
15 | B15 | 0.033 nM | 1.12 nM | 7.85 nM
16 | B16 | 0.079 nM | 25.8 nM | 47.6 nM
17 | B17 | 0.061 nM | 2.88 nM | 3.62 nM
18 | B18 | 0.067 nM | 0.74 nM | 3.23 nM
19 | B19 | 0.123 nM | 0.55 nM | 1.81 nM

From patent publication US20250186597A1, “TARGETED IMMUNE ACTIVATION WITH IL-18 IMMUNOCYTOKINES” (BRIGHT PEAK THERAPEUTICS AG, priority 2023, published 2025)
